Results taken from patent US20240254220A1 (CENTRICSBIO, published 2024).

How the values were obtained:
[1] = target: T1, CD300c antigen (11832-H08H, Sino Biological) (human, UniProt Q08708 21-183); experiment: binding ELISA on coated antigen (8 µg/mL), HRP anti-Fc detection, 450 nm (Experimental Example 2.5)
T1 construct: Bought antigen; also called CD300c protein; CD300 antigen-like family member C
T1 sequence (looked up): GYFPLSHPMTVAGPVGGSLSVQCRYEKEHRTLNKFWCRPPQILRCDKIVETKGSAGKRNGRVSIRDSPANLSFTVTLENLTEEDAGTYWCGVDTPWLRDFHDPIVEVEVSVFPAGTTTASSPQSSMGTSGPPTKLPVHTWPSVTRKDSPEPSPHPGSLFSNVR
Description: (§1) In order to identify that the anti-CD300c monoclonal antibody CL7 specifically binds only to CD300c without binding to other B7 family proteins, binding ELISA was performed. More specifically, each of CD300c antigen, CD300a antigen, or seven B7 family protein antigens (PD-L1 [B7-H1] (Sino Biological), ICOS Ligand[B7-H2] (Sino Biological), CD276[B7-H3] (Sino Biological), B7-H4 (Sino Biological), CD80[B7-1] (Sino Biological), CD86[B7-2] (Sino Biological), CD273[PD-L2] (Sino Biological)) in a coating buffer (0.1 M sodium carbonate, pH 9.0) was coated on an ELISA plate at a concentration of 8 μg/mL per well, and then bound to the plate by incubation at 2° C. to 8° C. overnight. The unbound antigen was removed by washing with PBST three times, and then […] of blocking buffer (5% skim milk in PBST) was added to each well. Subsequently, blocking was performed at room temperature for 1 hour, followed by washing again with PBST. Thereafter, CL7 was diluted in quadruplicate with PBS, incubated with the antigen at room temperature for 1 hour for antigen binding 1 hour later, and washed three times with PBST. Then, a secondary antibody (HRP-conjugated anti-Fc IgG) diluted to 4 μg/mL in blocking buffer was added thereto, followed by incubation at room temperature for 1 hour. Subsequently, the unbound antibody for detection was removed using PBST, and then a TMB solution was added thereto, followed by incubation for 10 minutes for development. Then, 2 N sulfuric acid solution was added to terminate the development reaction, and the absorbance was measured at 450 nm to identify the antibody specifically binding to the CD300c antigen.

[2] = target: T2, ICOS Ligand[B7-H2] (Sino Biological) (UniProt O75144 19-258, limits assumed); experiment: as above
T2 sequence (looked up): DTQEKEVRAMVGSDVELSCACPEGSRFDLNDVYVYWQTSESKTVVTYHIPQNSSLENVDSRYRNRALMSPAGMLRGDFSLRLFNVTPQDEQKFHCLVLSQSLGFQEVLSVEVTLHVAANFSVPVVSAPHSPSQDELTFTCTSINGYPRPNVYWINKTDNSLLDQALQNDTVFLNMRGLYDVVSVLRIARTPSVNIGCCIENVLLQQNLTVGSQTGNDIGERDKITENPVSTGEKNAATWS
Description: as §1

[3] = target: PD-L1 [B7-H1] (Sino Biological) (UniProt Q9NZQ7 19-239); experiment: as above
Description: as §1

[4] = target: T3, CD300a antigen (12449-H08H, Sino Biological) (UniProt Q9UGN4 18-178); experiment: as above
T3 sequence (looked up): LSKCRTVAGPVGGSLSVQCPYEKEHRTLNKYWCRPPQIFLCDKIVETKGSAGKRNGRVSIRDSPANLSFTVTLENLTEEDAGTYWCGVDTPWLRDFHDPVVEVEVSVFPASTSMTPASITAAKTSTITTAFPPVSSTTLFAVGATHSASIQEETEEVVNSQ
Description: as §1

[5] = target: T4, CD276[B7-H3] (Sino Biological) (UniProt Q5ZPR3 29-461, limits assumed); experiment: as above
T4 sequence (looked up): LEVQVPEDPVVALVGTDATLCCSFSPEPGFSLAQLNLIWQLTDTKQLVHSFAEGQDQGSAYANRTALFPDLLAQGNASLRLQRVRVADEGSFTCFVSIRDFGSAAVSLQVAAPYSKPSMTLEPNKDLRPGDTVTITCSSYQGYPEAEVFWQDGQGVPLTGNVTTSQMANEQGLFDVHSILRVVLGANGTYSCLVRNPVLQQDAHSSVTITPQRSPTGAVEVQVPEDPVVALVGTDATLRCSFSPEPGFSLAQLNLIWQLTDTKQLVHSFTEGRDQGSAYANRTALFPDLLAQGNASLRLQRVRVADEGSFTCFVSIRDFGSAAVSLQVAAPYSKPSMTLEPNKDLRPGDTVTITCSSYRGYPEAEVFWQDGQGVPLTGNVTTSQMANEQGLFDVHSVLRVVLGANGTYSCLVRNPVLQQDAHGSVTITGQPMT
Description: as §1

[6] = target: T5, CD300c on the surface of cells (human, UniProt Q08708 21-224); experiment: flow cytometry (FACS binding) on THP-1 cells overexpressing CD300c, FITC anti-human IgG (H+L), MFI
T5 construct: whole, on cells; also called cellular antigen
T5 sequence (looked up): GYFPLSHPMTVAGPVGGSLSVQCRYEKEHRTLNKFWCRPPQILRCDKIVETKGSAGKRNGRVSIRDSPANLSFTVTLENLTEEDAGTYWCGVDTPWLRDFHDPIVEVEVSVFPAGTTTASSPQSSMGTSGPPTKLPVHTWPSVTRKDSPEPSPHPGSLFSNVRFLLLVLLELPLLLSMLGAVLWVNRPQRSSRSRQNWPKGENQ
Description: In order to identify whether the anti-CD300c monoclonal antibody (CL7) recognizes a cellular antigen, FACS binding was performed.
Then, the cells were incubated with the anti-CD300c monoclonal antibody, which was serially diluted 3-fold starting from 10 μg/mL, in a CO₂ incubator for 30 minutes, and washed twice with FACS buffer. Then, the cells were incubated with FITC-conjugated anti-human IgG (H+L), which was diluted 1:100 in FACS buffer, in a CO₂ incubator for 30 minutes, and washed twice with FACS buffer. Subsequently, FITC signals were measured with a CytoFLEX instrument manufactured by Beckman Coulter, Inc., and then the MFI values were obtained using CytExpert program.

Chain of PD-L1 [B7-H1] (Sino Biological) (Q9NZQ7 19-239 limits assumed): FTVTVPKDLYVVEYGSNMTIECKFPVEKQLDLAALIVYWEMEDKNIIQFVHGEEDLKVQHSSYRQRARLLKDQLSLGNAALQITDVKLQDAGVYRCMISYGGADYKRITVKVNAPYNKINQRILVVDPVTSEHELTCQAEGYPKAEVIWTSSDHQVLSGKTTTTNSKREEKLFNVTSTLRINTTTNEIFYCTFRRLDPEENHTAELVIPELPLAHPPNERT

B1: CL7 (antibody, V domains shown)
VH: EVQLLESGGGLVQPGGSLRLSCAASGFTFSRYAMSWVRQAPGKGLEWVSAISGSGGSTYYADSVKGRFTISRDNSKNTLYLQMNSLRAEDTAVYYCARSSQGIFDIWGQGTLVTVSS
VL: QSVLTQPPSASGTPGQRVTISCSGNNIGTRRVHWYQQLPDTAPKLLIYSKNNRPSGVPDRFSGSKSGTSASLAISGLRSEDEADYYCAAWDDSLSGPVFGGGTKLTVL
notes: detected with anti-human IgG (H+L) and anti-Fc IgG; also called anti-CD300c monoclonal antibody CL7; anti-CD300c monoclonal antibody (CL7)
[1]
  EC50 (read off the curve): ~0.2 µg/mL
[2]
  binding result: no binding (tested: log10 about 0.4 ug/ml (about 2.5 ug/ml))
[3]
  binding result: no binding (tested: log10 about 0.4 ug/ml (about 2.5 ug/ml))
[4]
  binding result: no binding (tested: log10 about 0.4 ug/ml (about 2.5 ug/ml))
[5]
  binding result: no binding (tested: log10 about 0.4 ug/ml (about 2.5 ug/ml))
[6]
  EC50: 2.6 nM
